Tested on: O=[N+]([O-])c1ccccc1O[C@@H]1O[C@H](CO)[C@H](O)[C@H](O)[C@H]1O
Assay: purified protein
Details: 35 °C, 50 mM sodium phosphate pH 8, ONPG 0.1–5 mM

Substance “recombinant Gal (β-galactosidase) (Alteromonas sp.)” has a Km of 140 µM, a Vmax of 465 µmol/min/mg and a kcat of 3690 s⁻¹. The kcat/Km was 2.63e+07 M⁻¹ s⁻¹.
